# Reference: paper PMC10374912 (Nature Communications, 2023)
# Target: T1, Rtg3-6XHis (recombinant, co-expressed with Rtg1) (C. albicans, UniProt A0A1D8PF20 1-520)
# T1 construct: Rtg3, basic helix-loop-helix transcription factor of Candida albicans; also called tagged Rtg3; Rtg3X6his; source: E. coli BL21(DE3), co-expressed with Rtg1 from pColaDuet (pLC1452), purified (Ni-NTA, heparin, SEC)
# T1 sequence (looked up): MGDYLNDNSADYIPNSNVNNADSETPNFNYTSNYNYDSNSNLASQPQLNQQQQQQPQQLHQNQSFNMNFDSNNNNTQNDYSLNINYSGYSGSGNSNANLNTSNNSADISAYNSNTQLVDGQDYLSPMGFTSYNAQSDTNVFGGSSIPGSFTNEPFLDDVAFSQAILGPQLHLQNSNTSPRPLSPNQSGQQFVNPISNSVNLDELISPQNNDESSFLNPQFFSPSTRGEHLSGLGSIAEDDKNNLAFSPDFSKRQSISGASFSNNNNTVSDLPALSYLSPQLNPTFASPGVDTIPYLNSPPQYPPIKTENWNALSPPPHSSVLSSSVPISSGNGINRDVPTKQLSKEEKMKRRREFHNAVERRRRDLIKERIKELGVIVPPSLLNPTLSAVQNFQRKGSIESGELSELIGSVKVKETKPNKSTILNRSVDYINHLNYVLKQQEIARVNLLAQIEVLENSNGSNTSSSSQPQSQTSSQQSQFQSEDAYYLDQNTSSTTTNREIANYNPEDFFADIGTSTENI
# Experiment: SEC; Rtg1 and Rtg3-6XHis co-expressed in E. coli, co-purified by Ni-NTA and heparin, then HiLoad 16/600 Superdex 200 pg; 25 mM HEPES-NaOH pH 7.8, 300 mM NaCl, 5% glycerol; ambient temperature; fractions on SDS-PAGE, Coomassie
# Settings: both partners purified
binder,measurement,value
"Rtg1 (recombinant, co-expressed with Rtg3-6XHis) (natural protein, C. albicans, UniProt Q5APP3 1-274, looked up, Rtg1, basic helix-loop-helix transcription factor of Candida albicans; untagged; source: E. coli BL21(DE3), co-expressed with Rtg3-6XHis from pColaDuet (pLC1452), purified (Ni-NTA, heparin, SEC)) MSQFGEFYDTYSVENNQQYDTDLNNSTNTPIVQSKQRNDNIIPSINIKQEDFDSVLSGSLDVKKQLSSSLNTAGVGIGSSYGNGGISKPQSRRNSTYIKSHEGSDNEDEDDQNDKDVGNERKRRDNINDKIQELLTLIPSEFFQSNTDNNTKTGTKVVKENSPEDDAVKNSGTKDGKPNKGQILTKSVEYLQYLQNLIDENNRKEVELIMRLKTLELKAANRPSENIPIRIGYTSAEKALGEIGVGPCSEEYFKNVLIKSASTSKSGRRGSTSG",stoichiometry N,~1
